“Also recorded” adds a separate entry of the source.
B1: S16: human anti-HMG1 antibody, ATCC PTA-6259; VL/VH aa SEQ ID NO: 13/15 (antibody, listed as Homo sapiens, V domains shown)
VH: EVQLLESGGGLVQPGGSLRLSCAASGFTFSWYSMLWVRQAPGKGLEWVSYISPSGGFTNYADSVKGRFTISRDNSKNTLYLQMNSLRAEDTAVYYCARWDYNSGWYYDHWGQGTLVTVSS
VL: AQDIQMTQSPDTLSLSPGERATLSCRASQSVNSRNLAWYQQKPGQAPRLLIYGASTRATGIPDRFSGSVSGTEFTLTISSLQPDDFATYYCQQYNSYFTFGQGTKLEIK
B2: G2: human anti-HMG1 IgG1 from Fab phage display library; VL/VH aa SEQ ID NO: 30/32 (antibody, listed as Homo sapiens, V domains shown)
VH: EVQLLESGGGLVQPGGSLRLSCAASGFTFSWYKMQWVRQAPGKGLEWVSGISPSGGSTAYADSVKGRFTISRDNSKNTLYLQMNSLRAEDTAVYYCAKMGLFNTGNSYVDYWGQGTLVTVSS
VL: AQSELTQPPSVSEAPGQRVTISCSGSTSNIGNNAVIWYQQLPGKAPKLLIYYDDLLPSGVSDRFSGSKSGTSGSLAISGLQSEDEADYYCASWDDNLNGPLFGGGTKLTVL
B3: E11: human anti-HMG1 antibody, recognizes HMG1 A-Box; VL/VH aa SEQ ID NO: 24/26 (antibody, listed as Homo sapiens, V domains shown)
VH: EVQLLESGGGLVQPGGSLRLSCAASGFTFSRYQMNWVRQAPGKGLEWVSSISPSGGHTHYADSVKGRFTISRDNSKNTLYLQMNSLRAEDTAVYYCAKDGRQGKISTVDHWGQGTLVTVSS
VL: AQDIQMTQSPGTLSLSPGERATLSCRASQSVRSNFLAWYQQKPGQAPRLLIYGASRRASGIPDRFSGSGFGADFTLSISRLEPEDFAVYYCQQYGSSPNTFGQGSRVEIK

Experiments:
[1] = tested on: HMG1 enhancement of PAMP stimulation; test: Inhibition of the enhancement of PAMP stimulation by HMG1 (Table 1 summary); type: cell-based; conditions: PAMP used and cytokine assayed are indicated
Method: Inhibition of HMG1 Mediated Enhancement of TLR Signaling: Human PBMCs were treated with Tx-HMGB1+LPS (as described above) in combination with either the Anti-HMG1 antibody E11, S16 or G4, anti-TLR4 antibody, or isotype control antibodies (R3, IgG2a) and incubated overnight at 37° C., 5% CO2 in the presence of 8 U/mL Polymyxin B. The supernatants were assayed for cytokine levels (FIG. 22, right panel).
Inhibition of HMG1 Mediated Enhancement of TLR Signaling: Freshly isolated bone marrow cells were stimulated with TLR9 ligand CpG2216 (0.3 μM) and thymus HMGB1 (10 μg/mL) in the presence of different concentration of the anti-HMGB1 mAb E11 or control human IgG for 24 hr and IFN-a in the supernatant was measured by ELISA. CpG2216, HMGB1 and nonstimulatory DNA were used alone or in combination as controls for the assay.

HMG1 peptides = test: HMG1 B Box and peptide mapping ELISA; type: binding; conditions: overlapping HMGB1 peptides
Method: HMG1 B Box and Peptide Mapping: Individual wells of a 96-well immunoplate (EIA/RIA plate, High binding, Costar) were coated with HMG1 B Box peptide amino acids 91-169 (FIG. 5A) or amino acids 150-183 (FIG. 5B) at 10 μg/ml in PBS at 4° C. overnight. The plate was then blocked with 4% milk powder dissolved in PBS at 37° C. for 1 hour. The blocking solution was removed and replaced with human anti-HMG1 antibodies at various concentrations (see FIGS. 5A-B). The plate was then washed (ELX-405 Plate washer, BIO-TEK) and secondary antibody (anti-human IgG-HRP, PIERCE) was added at a final concentration of 1:125,000 at 37° C. for 1 hour. HRP activity was detected with Sureblue HRP substrate (KPL). Plates were read at 450 nm using a Kinetic Microplate Reader (Molecular Devices). To obtain more detailed peptide mapping information, similar ELISA assays were performed using 16 biotinylated overlapping peptides spanning the HMGB1 protein from amino acid 1 to 215 as follows, maxisorp microtiter plate was coated with 2 μg/ml of NeutroAvidin (Pierce) overnight at 4° C. After washing and blocking with 1% BSA in PBS, the biotinylated peptides were individually added into the avidin coated wells and incubated for 30 min at room temperature. The serial diluted antibody G4, S16 and S6 at the initial concentration at 10 μg/ml were then transferred into the wells followed by adding mouse anti human IgG-HRP conjugate (Pierce). Detection was accomplished by adding 50 μl of tetramethylbenzidine (TMB) substrate (KPL) and the absorbance was read at […]. The peptides used were amino acids: 46-63; 61-78; 76-93; 91-108; 106-123; 136-153; 151-168; 166-183; 179-185; 181-198; and 196-215.

[2] = tested on: passive CIA mouse model of arthritis; test: Passive collagen-induced arthritis (CIA) mouse model; type: in vivo; conditions: percent protection, isotype control subtracted
Method: Induction of Passive Collagen Induced Arthritis (CIA): To establish an arthritis model six-eight week old male DBA/1J mice (Jackson Labs, Bar Harbor, Me.) were used. Generally 5-8 mice per group are used, On day 0, mice were immunized with 2 mg/mouse of anti-collage mAb cocktail (Chemicon # ECM1100, 10 mg/ml) intravenously, i.v. at tail. Mice were subsequently injected with 50 μg LPS/mouse, i.p. on day 3. Each experiment had several groups of animals as follows: groups A-E in experiment 1, groups G-J in experiment 2 and groups L-N). An additional group of mice (groups F, K and O) were untreated as normal controls.
Monitoring Disease: Beginning at day 0 all animals were observed daily to assess the status of the disease in their paws, which was done by assigning a qualitative clinical score to each of the paws. Every day, each animal has its 4 paws scored according to its state of clinical disease. The scoring is done by two observers, with at least one blinded. In addition, each mouse is weighed, to follow body weight changes, at the same time the paws are scored (see FIGS. 6A and 6D)
The grading scale for the 4 lateral digits of each paw are graded as involved or not involved, i.e., 1 or 0. For example, a maximally involved left rear paw would be scored: ankle=3, midfoot=3, digits=4 (clinical score=10 units) We would repeat this for each paw and sum the scores. […]

THP-1 cells = test: HMG1 binding to THP-1 cells; parameters: species or system human
Method: HMG1 binding to THP-1 Cells: Recombinant rat HMGB-1 was labeled using Eu-labelling Kit from PerkinElmer. Molar ratio of HMGB-1 to Eu is 1:5. THP-1 were cultured as the protocol from ATCC. Cells were harvested and suspended at concentration 1×10^6/ml in assay buffer containing 1×DELFIA L*R binding buffer (PerkinElmer), 50% of DELFIA stabilizer (PerkinElmer) and 0.05% of sodium azide. 100 μl of cells (1×10^5) was added into wells in 96 well cell culture plate. The plate was incubated with gentle shaking at 4° C. for one hour. 100 μl of assay buffer containing 2 nM of Europium-labeled HMGB-1 mixed with various concentrations (333, 166.5, 83.25, 41.6, 20.8, 10.4 and 5.2 nM) of human anti-HMGB1 antibodies E11 or G2 or soluble human RAGE-Fc, were added into each wells respectively. After one hour incubation with gentle shaking at 4° C., the cells were washed four times with 1×L*R wash buffer (PerkinElmer) by centrifuging at 1200 rpm×5 min. 200 μl of enhancement solution was added into each well to dissociate and enhance Eu fluorescence at 615 nm. The fluorescence was measured with Wallac Victor Fluorometer. Assay was performed in triplicate and human antibody R3-47 was used the negative isotype control.

Row | Molecule | Inhibition of Synergy (PAMP/Cytokine) [1] | detailed peptide mapping / domain recognized (HMG1 peptides) | in vivo CIA passive [2] | block of HMG1 binding to THP-1 cells (THP-1 cells)
1 | B1 | LPS/IL-6 | strongest binding to the B-box peptide 91-108 with lesser binding to peptides 166-183 and 179-186; also recorded: binds the B-box peptide 91-108 and to a lesser extent peptides 166-183 and 179-186 | 0% | –
2 | B2 | – | – | 0% | block the binding of HMG1 to THP-1 cells
3 | B3 | CpG/IFN-a, LPS/IL-6 | recognizes the HMG1 A-Box | – | block the binding of HMG1 to THP-1 cells
